Assay results taken from the supplement of paper PMC9112550, “Optimization of the antimicrobial peptide Bac7 by deep mutational scanning” (BMC Biology, 2022).

Test system: Escherichia coli TOP10
Assay: shrunken log2 fold change of peptide-encoding DNA abundance (4.5 h post-induction vs induction); higher = less antimicrobial activity (less host growth inhibition)
Settings: time post-induction: 4.5 h; library: site-saturation at positions 5, 18, 19, 20
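Note: peptides expressed intracellularly from a pBAD plasmid library in pooled LB shake-flask culture, induced with 0.3% L-arabinose, DNA abundance read by NGS, three biological replicates, DESeq2 with apeglm shrinkage.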

Sequence: RRIRNRPPRLPRPRPRPWGAPRP
- shrunken log2 fold change: 0.0894

Sequence: RRIRFRPPRLPRPRPRPHYSPRP
- shrunken log2 fold change: -0.65

Sequence: RRIRARPPRLPRPRPRPLQYPRP
- shrunken log2 fold change: 0.00717

Sequence: RRIRERPPRLPRPRPRPWRAPRP
- shrunken log2 fold change: 0.0397

Sequence: RRIRRRPPRLPRPRPRPSPVPRP
- shrunken log2 fold change: 0.379

Sequence: RRIRHRPPRLPRPRPRPKILPRP
- shrunken log2 fold change: 0.0673

Sequence: RRIRMRPPRLPRPRPRPIKCPRP
- shrunken log2 fold change: -0.0724

Sequence: RRIRCRPPRLPRPRPRPNWLPRP
- shrunken log2 fold change: -0.115

Sequence: RRIRNRPPRLPRPRPRPVCKPRP
- shrunken log2 fold change: -0.0239

Sequence: RRIRLRPPRLPRPRPRPDKDPRP
- shrunken log2 fold change: 0.0388

Sequence: RRIRSRPPRLPRPRPRPPMSPRP
- shrunken log2 fold change: -0.0301

Sequence: RRIRWRPPRLPRPRPRPIRMPRP
- shrunken log2 fold change: 0.098

Sequence: RRIRRRPPRLPRPRPRPQKGPRP
- shrunken log2 fold change: -0.138

Sequence: RRIRRRPPRLPRPRPRPRWWPRP
- shrunken log2 fold change: 0.318

Sequence: RRIRGRPPRLPRPRPRPQGRPRP
- shrunken log2 fold change: 0.553

Sequence: RRIRCRPPRLPRPRPRPSPGPRP
- shrunken log2 fold change: 0.0883

Sequence: RRIRWRPPRLPRPRPRPTGHPRP
- shrunken log2 fold change: 0.317

Sequence: RRIRCRPPRLPRPRPRPAWDPRP
- shrunken log2 fold change: 0.235

Sequence: RRIRIRPPRLPRPRPRPGTFPRP
- shrunken log2 fold change: -0.0863

Sequence: RRIRQRPPRLPRPRPRPKDYPRP
- shrunken log2 fold change: -0.756

Sequence: RRIRIRPPRLPRPRPRPFNEPRP
- shrunken log2 fold change: -0.331

Sequence: RRIRWRPPRLPRPRPRPRMIPRP
- shrunken log2 fold change: 0.693

Sequence: RRIRKRPPRLPRPRPRPITMPRP
- shrunken log2 fold change: -0.122

Sequence: RRIRMRPPRLPRPRPRPPSAPRP
- shrunken log2 fold change: 1.2

Sequence: RRIRNRPPRLPRPRPRPLFNPRP
- shrunken log2 fold change: -0.777

Sequence: RRIRPRPPRLPRPRPRPAMTPRP
- shrunken log2 fold change: -0.085

Sequence: RRIRHRPPRLPRPRPRPRVQPRP
- shrunken log2 fold change: 0.054

Sequence: RRIRDRPPRLPRPRPRPRSSPRP
- shrunken log2 fold change: -0.0289

Sequence: RRIRGRPPRLPRPRPRPPSWPRP
- shrunken log2 fold change: 1.24

Sequence: RRIRVRPPRLPRPRPRPVDCPRP
- shrunken log2 fold change: 0.014

Sequence: RRIRNRPPRLPRPRPRPGEVPRP
- shrunken log2 fold change: -0.121

Sequence: RRIRPRPPRLPRPRPRPCTMPRP
- shrunken log2 fold change: -0.191

Sequence: RRIRVRPPRLPRPRPRPDKGPRP
- shrunken log2 fold change: -0.591

Sequence: RRIRTRPPRLPRPRPRPSHLPRP
- shrunken log2 fold change: -0.411

Sequence: RRIRSRPPRLPRPRPRPMVQPRP
- shrunken log2 fold change: 0.13

Sequence: RRIRERPPRLPRPRPRPNHVPRP
- shrunken log2 fold change: -0.25

Sequence: RRIRKRPPRLPRPRPRPEPHPRP
- shrunken log2 fold change: 0.829

Sequence: RRIRPRPPRLPRPRPRPMLHPRP
- shrunken log2 fold change: -0.0917

Sequence: RRIRGRPPRLPRPRPRPLSTPRP
- shrunken log2 fold change: 1.13

Sequence: RRIRLRPPRLPRPRPRPAGFPRP
- shrunken log2 fold change: 0.46

Sequence: RRIRKRPPRLPRPRPRPNRRPRP
- shrunken log2 fold change: 0.0646

Sequence: RRIRFRPPRLPRPRPRPNYTPRP
- shrunken log2 fold change: -1.07

Sequence: RRIRIRPPRLPRPRPRPDLEPRP
- shrunken log2 fold change: -0.0323

Sequence: RRIRYRPPRLPRPRPRPYWRPRP
- shrunken log2 fold change: 0.0608

Sequence: RRIRCRPPRLPRPRPRPHGLPRP
- shrunken log2 fold change: -0.0989

Sequence: RRIRKRPPRLPRPRPRPTEEPRP
- shrunken log2 fold change: 2.12

Sequence: RRIRYRPPRLPRPRPRPMGHPRP
- shrunken log2 fold change: -1.16

Sequence: RRIRLRPPRLPRPRPRPTMSPRP
- shrunken log2 fold change: -0.226

Sequence: RRIRSRPPRLPRPRPRPMFAPRP
- shrunken log2 fold change: 0.154

Sequence: RRIRARPPRLPRPRPRPDYTPRP
- shrunken log2 fold change: -0.312

Sequence: RRIRHRPPRLPRPRPRPQYSPRP
- shrunken log2 fold change: -0.572

Sequence: RRIRLRPPRLPRPRPRPTEPPRP
- shrunken log2 fold change: 0.0962

Sequence: RRIRSRPPRLPRPRPRPCMIPRP
- shrunken log2 fold change: -0.389

Sequence: RRIRTRPPRLPRPRPRPDSHPRP
- shrunken log2 fold change: -0.153

Sequence: RRIRGRPPRLPRPRPRPCECPRP
- shrunken log2 fold change: -0.0257

Sequence: RRIRKRPPRLPRPRPRPVGLPRP
- shrunken log2 fold change: 0.174

Sequence: RRIRNRPPRLPRPRPRPNQVPRP
- shrunken log2 fold change: -0.255

Sequence: RRIRKRPPRLPRPRPRPTWDPRP
- shrunken log2 fold change: 0.289

Sequence: RRIRHRPPRLPRPRPRPIRKPRP
- shrunken log2 fold change: -0.583

Sequence: RRIRARPPRLPRPRPRPALNPRP
- shrunken log2 fold change: 0.431

Sequence: RRIRDRPPRLPRPRPRPEHSPRP
- shrunken log2 fold change: -0.027

Sequence: RRIRTRPPRLPRPRPRPPHLPRP
- shrunken log2 fold change: 0.0444

Sequence: RRIRLRPPRLPRPRPRPSDCPRP
- shrunken log2 fold change: -0.336

Sequence: RRIRIRPPRLPRPRPRPMIHPRP
- shrunken log2 fold change: -0.363

Sequence: RRIRWRPPRLPRPRPRPTHIPRP
- shrunken log2 fold change: -0.067

Sequence: RRIRERPPRLPRPRPRPPAIPRP
- shrunken log2 fold change: -0.0287

Sequence: RRIRKRPPRLPRPRPRPMDVPRP
- shrunken log2 fold change: 0.0608

Sequence: RRIRMRPPRLPRPRPRPHHKPRP
- shrunken log2 fold change: -0.316

Sequence: RRIRNRPPRLPRPRPRPWIGPRP
- shrunken log2 fold change: -0.128

Sequence: RRIRMRPPRLPRPRPRPMLPPRP
- shrunken log2 fold change: 0.301

Sequence: RRIRVRPPRLPRPRPRPKPVPRP
- shrunken log2 fold change: 0.42

Sequence: RRIRQRPPRLPRPRPRPMWMPRP
- shrunken log2 fold change: 0.0583

Sequence: RRIRPRPPRLPRPRPRPHCDPRP
- shrunken log2 fold change: 0.22

Sequence: RRIRYRPPRLPRPRPRPLMKPRP
- shrunken log2 fold change: -0.179

Sequence: RRIRNRPPRLPRPRPRPRKQPRP
- shrunken log2 fold change: 0.215

Sequence: RRIRPRPPRLPRPRPRPKGIPRP
- shrunken log2 fold change: -0.0606

Sequence: RRIRHRPPRLPRPRPRPIIVPRP
- shrunken log2 fold change: -0.0935

Sequence: RRIRGRPPRLPRPRPRPIIGPRP
- shrunken log2 fold change: -0.0822

Sequence: RRIRQRPPRLPRPRPRPWQYPRP
- shrunken log2 fold change: -0.366

Sequence: RRIRHRPPRLPRPRPRPWVKPRP
- shrunken log2 fold change: -0.0135

Sequence: RRIRQRPPRLPRPRPRPPSEPRP
- shrunken log2 fold change: -0.0213

Sequence: RRIRWRPPRLPRPRPRPQTNPRP
- shrunken log2 fold change: 0.14

Sequence: RRIRSRPPRLPRPRPRPDSSPRP
- shrunken log2 fold change: -0.418

Sequence: RRIRNRPPRLPRPRPRPLNTPRP
- shrunken log2 fold change: -0.413

Sequence: RRIRLRPPRLPRPRPRPNLIPRP
- shrunken log2 fold change: -0.117

Sequence: RRIRARPPRLPRPRPRPQAFPRP
- shrunken log2 fold change: -0.323

Sequence: RRIRWRPPRLPRPRPRPHAAPRP
- shrunken log2 fold change: 0.45

Sequence: RRIRERPPRLPRPRPRPHIYPRP
- shrunken log2 fold change: -0.226

Sequence: RRIRERPPRLPRPRPRPGLMPRP
- shrunken log2 fold change: -0.0269

Sequence: RRIRVRPPRLPRPRPRPGTRPRP
- shrunken log2 fold change: -0.0152

Sequence: RRIRLRPPRLPRPRPRPREIPRP
- shrunken log2 fold change: 0.0725
